# Results taken from patent US10239925B2, “Peptides and combination of peptides for use in immunotherapy against ovarian cancer and other cancers” (IMMATICS BIOTECHNOLOGIES GMBH, priority 2015, dated 2019).
# Biological target: HLA-A*02:01 (Homo sapiens, UniProt P04439, D140Y/D185E/D98H/E176V/E277Q/G131W/G231S/I119V/I121R/I166T/I218V/L300P/L318F/N151K/N90K/P208A/P217A/Q86G/Q94H/R138H/R169H/T345S)
# Experiment: MHC binding assay (UV-ligand exchange, anti-β2m ELISA, peptide exchange yield)
# Details: binding to HLA-A*02:01
# From the text: Candidate peptides for T cell based therapies according to the present invention were further tested for their MHC binding capacity (affinity). The individual peptide-MHC complexes were produced by UV-ligand exchange, where a UV-sensitive peptide is cleaved upon UV-irradiation, and exchanged with the peptide of interest as analyzed. Only peptide candidates that can effectively bind and stabilize the peptide-receptive MHC molecules prevent dissociation of the MHC complexes. To determine the yield of the exchange reaction, an ELISA was performed based on the detection of the light chain (β2m) of stabilized MHC complexes. The assay was performed as generally described in Rodenko et al. (Rodenko et al., 2006).
# 96 well MAXISorp plates (NUNC) were coated over night with 2 ug/ml streptavidin in PBS at room temperature, washed 4× and blocked for 1h at 37° C. in 2% BSA containing blocking buffer. […] Peptide-MHC monomers of the UV-exchange reaction were diluted 100 fold in blocking buffer. Samples were incubated for 1 h at 37° C., washed four times, incubated with 2 ug/ml HRP conjugated anti-β2m for 1h at 37° C., washed again and detected with TMB solution that is stopped with […]. Absorption was measured at 450 nm. Candidate peptides that show a high exchange yield (preferably higher than 50%, most preferred higher than 75%) are generally preferred for a generation and production of antibodies or fragments thereof, and/or T cell receptors or fragments thereof, as they show sufficient avidity to the MHC molecules and prevent dissociation of the MHC complexes.
row,Substance,"Peptide exchange (MHC class I binding score, peptide exchange yield)"
1,54 (SLLEQGKEPWMV; listed as Homo sapiens) [compound 54],“+++” (>50 = +++)
2,241 (SLVEVNPAYSV; listed as Homo sapiens) [compound 241],“+++” (>50 = +++)
3,179 (KVLNELYTV; listed as Homo sapiens) [compound 179],“+++” (>50 = +++)
4,32 (KLDDLTQDLTV; listed as Homo sapiens) [compound 32],“++” (>20% = ++)
5,180 (FQIDPHSGLVTV; listed as Homo sapiens) [compound 180],“++” (>20% = ++)
6,81 (FLFSQLQYL; listed as Homo sapiens) [compound 81],“++” (>20% = ++)
7,14 (AAYGGLNEKSFV; listed as Homo sapiens) [compound 14],“+++” (>50 = +++)
8,197 (ALGPEGGRV; listed as Homo sapiens) [compound 197],“++” (>20% = ++)
9,85 (KMSELRVTL; listed as Homo sapiens) [compound 85],“+++” (>50 = +++)
10,138 (YQYPRAILSV; listed as Homo sapiens) [compound 138],“+++” (>50 = +++)
11,57 (TLAELQPPVQL; listed as Homo sapiens) [compound 57],“+++” (>50 = +++)
12,30 (LILDWVPYI; listed as Homo sapiens) [compound 30],“+++” (>50 = +++)
13,94 (YLIDIKTIAI; listed as Homo sapiens) [compound 94],“++” (>20% = ++)
14,196 (YLYSVEIKL; listed as Homo sapiens) [compound 196],“++++” (>75% = ++++)
15,29 (KMLGIPISNILMV; listed as Homo sapiens) [compound 29],“+++” (>50 = +++)
16,216 (NLWEDPYYL; listed as Homo sapiens) [compound 216],“+++” (>50 = +++)
17,194 (ALPLFVITV; listed as Homo sapiens) [compound 194],“+++” (>50 = +++)
18,100 (YLLSTNAQL; listed as Homo sapiens) [compound 100],“++++” (>75% = ++++)
19,55 (SLLDLETLSL; listed as Homo sapiens) [compound 55],“++++” (>75% = ++++)
20,205 (SLYPGTETMGL; listed as Homo sapiens) [compound 205],“+++” (>50 = +++)
21,111 (YVWGFYPAEV; listed as Homo sapiens) [compound 111],“+++” (>50 = +++)
22,117 (ILPDGEDFLAV; listed as Homo sapiens) [compound 117],“+++” (>50 = +++)

# More lines, now with the values ahead:
row,"Peptide exchange (MHC class I binding score, peptide exchange yield)",Substance
1,“++” (>20% = ++),279 (ALWGGTQPLL; listed as Homo sapiens) [compound 279]
2,“+++” (>50 = +++),433 (AMLNEPWAV; listed as Homo sapiens) [compound 433]
3,“+++” (>50 = +++),502 (RLLAQVPGL; listed as Homo sapiens) [compound 502]
4,“+++” (>50 = +++),328 (ALNDQVFEI; listed as Homo sapiens) [compound 328]
5,“+++” (>50 = +++),378 (ALGYFVPYV; listed as Homo sapiens) [compound 378]
6,“+++” (>50 = +++),515 (LLQELVLFL; listed as Homo sapiens) [compound 515]
7,“++” (>20% = ++),333 (FLPDANSSV; listed as Homo sapiens) [compound 333]
8,“+++” (>50 = +++),336 (ILLTAIVQV; listed as Homo sapiens) [compound 336]
9,“++++” (>75% = ++++),347 (SLFKHDPAAWEA; listed as Homo sapiens) [compound 347]
10,“++” (>20% = ++),434 (KVSNSGITRV; listed as Homo sapiens) [compound 434]
11,“+++” (>50 = +++),503 (SLNHFTHSV; listed as Homo sapiens) [compound 503]
12,“+++” (>50 = +++),267 (ALQDFLLSV; listed as Homo sapiens) [compound 267]
13,“+++” (>50 = +++),542 (RVWDISTVSSV; listed as Homo sapiens) [compound 542]
14,“++++” (>75% = ++++),303 (AILPQLFMV; listed as Homo sapiens) [compound 303]
15,“+++” (>50 = +++),341 (SQIALNEKLVNL; listed as Homo sapiens) [compound 341]
16,“+++” (>50 = +++),246 (LLWEVVSQL; listed as Homo sapiens) [compound 246]
17,“++” (>20% = ++),461 (VMFRTPLASV; listed as Homo sapiens) [compound 461]
18,“+++” (>50 = +++),600 (ALAAPDIVPAL; listed as Homo sapiens) [compound 600]
19,“++” (>20% = ++),377 (FLLDSSASV; listed as Homo sapiens) [compound 377]
20,“++” (>20% = ++),447 (QLVPALAKV; listed as Homo sapiens) [compound 447]
21,“+++” (>50 = +++),450 (FMIDASVHPTL; listed as Homo sapiens) [compound 450]
22,“++” (>20% = ++),429 (GLVNDLARV; listed as Homo sapiens) [compound 429]
23,“++” (>20% = ++),278 (QLLDVVLTI; listed as Homo sapiens) [compound 278]
24,“+++” (>50 = +++),272 (ALGNTVPAV; listed as Homo sapiens) [compound 272]
25,“+++” (>50 = +++),396 (ALLPDLPAL; listed as Homo sapiens) [compound 396]
26,“+++” (>50 = +++),388 (SLTIDGIRYV; listed as Homo sapiens) [compound 388]
27,“+++” (>50 = +++),573 (ILVANAIVGV; listed as Homo sapiens) [compound 573]
28,“+++” (>50 = +++),486 (AVMESIQGV; listed as Homo sapiens) [compound 486]
